The source of these data is US20230383265A1, “D-beta-HYDROXYBUTYRATE DEHYDROGENASES (BHBDhs) AND THEIR USE FOR KETONE MONITORING” (The University of North Carolina at Chapel Hill, priority 2022, published 2023).

For series [1], the target named is T1, Thermus thermophilus BHBDh (TtBHBDh), wild type, SEQ ID NO: 3 (Thermus thermophilus, UniProt Q5SKF0).
T1 sequence (Q5SKF0 1-251): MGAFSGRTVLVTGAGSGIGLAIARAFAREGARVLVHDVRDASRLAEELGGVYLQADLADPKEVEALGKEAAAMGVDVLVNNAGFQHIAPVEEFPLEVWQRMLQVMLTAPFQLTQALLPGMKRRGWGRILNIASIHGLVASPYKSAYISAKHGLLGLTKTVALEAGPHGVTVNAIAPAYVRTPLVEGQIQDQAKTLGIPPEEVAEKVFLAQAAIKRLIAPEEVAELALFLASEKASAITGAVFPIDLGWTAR
Description: BHB concentration-dependent BHBDh activity of TtBHBDh (NADH detection, absorbance at 340 nm). In kind it is biochemical. The settings on record: 1 mM NAD+, 10 mM HEPES pH 7.8, 0 mM MgCl2, 0-50 mM BHB, room temperature; read-out: Km toward BHB. How it is done:
The activity was measured using NADH detection via absorbance at 340 nm, at room temperature. The measurement was done in a solution with 1 mM NAD^+, 10 mM HEPES at pH 7.8, and 0 mM MgCl2·6 H2O, from 0-50 mM BHB.

Substrate in series [2]: C[C@@H](O)CC(=O)O
Description: NAD dependent BHB dehydrogenase activity of AfBHBDh. In kind it is biochemical, Alcaligenes faecalis.

Take `C[C@@H](O)CC(=O)O` [BHB, R-3-hydroxybutyrate]: in series [1], the Km came out at 359 µM.

B1: (Alcaligenes faecalis) (protein)
chain: MLKGKKAVVTGSTSGIGLAMATELAKAGADVVINGFGQPEDIERERSTLESKFGVKAYYLNADLSDAQATRDFIAKAAEALGGLDILVNNAGIQHTAPIEEFPVDKWNAIIALNLSAVFHGTAAALPIMQKQGWGRIINIASAHGLVASVNKSAYVAAKHGVVGLTKVTALENAGKGITCNAICPGWVRTPLVEKQIEAISQQKGIDIEAAARELLAEKQPSLQFVTPEQLGGAAVFLSSAAADQMTGTTLSLDGGWTAR
With B1, in series [2], the Km stood at 1130 µM and the Vmax was determined as 223 µmol/min/mg.

In general, Km refers to the concentration of substrate that gives half-maximal velocity. By Vmax is commonly meant the top rate of the reaction or transport when substrate is in excess.
